Data published in paper PMC11929908 (Nature Communications, 2025).
Blank lines part the entries; values can stand above or below the molecule they belong to.

Columns and labels:
[1] = target: PsiD R135A/Q136A (Psilocybe cubensis) (UniProt P0DPA6); test: SEC
SEC = target: the molecule itself; test: SEC
crystal structure [2] = target: the molecule itself; test: crystal structure
crystal structure [3] = target: the molecule itself; test: crystal structure; remark: listed apart in the source

stoichiometry N [1]: 2
Molecule: PsiD R135A/Q136A (from UniProt P0DPA6 1-402) (enzyme)

B1: PsiD (1–439) S403A (enzyme, Psilocybe cubensis, UniProt P0DPA6 1-439, looked up)
chain: MQVIPACNSAAIRSLCPTPESLRNMGWLSVSDAVYSEFIGELATRASNRNYSNEFGLMQPIQEFKAFIESDPVVHQEFIDMFEGIQDSPRNYQELCNMFNDIFRKAPVYGDLGPPVYMIMAKLMNTRAGFSAFTRQRLNLHFKKLFDTWGLFLSSKDSRNVLVADQFDDRHCGWLNERALSAMVKHYNGRAFDEVFLCDKNAPYYGFNSYDDFFNRRFRNRDIDRPVVGGVNNTTLISAACESLSYNVSYDVQSLDTLVFKGETYSLKHLLNNDPFTPQFEHGSILQGFLNVTAYHRWHAPVNGTIVKIINVPGTYFAQAPSTIGDPIPDNDYDPPPYLKSLVYFSNIAARQIMFIEADNKEIGLIFLVFIGMTEISTCEATVSEGQHVNRGDDLGMFHFGGASFALGLRKDCRAEIVEKFTEPGTVIRINEVVAALKA
stoichiometry N (SEC): 2

B2: L-tryptophan decarboxylase PsiD, full-length (1–439), wildtype, self-cleaved mature enzyme (enzyme, Psilocybe cubensis)
chain 1: MQVIPACNSAAIRSLCPTPESLRNMGWLSVSDAVYSEFIGELATRASNRNYSNEFGLMQPIQEFKAFIESDPVVHQEFIDMFEGIQDSPRNYQELCNMFNDIFRKAPVYGDLGPPVYMIMAKLMNTRAGFSAFTRQRLNLHFKKLFDTWGLFLSSKDSRNVLVADQFDDRHCGWLNERALSAMVKHYNGRAFDEVFLCDKNAPYYGFNSYDDFFNRRFRNRDIDRPVVGGVNNTTLISAACESLSYNVSYDVQSLDTLVFKGETYSLKHLLNNDPFTPQFEHGSILQGFLNVTAYHRWHAPVNGTIVKIINVPGTYFAQAPSTIGDPIPDNDYDPPPYLKSLVYFSNIAARQIMFIEADNKEIGLIFLVFIGMTEISTCEATVSEGQHVNRGDDLGMFHFGG
chain 2: SSFALGLRKDCRAEIVEKFTEPGTVIRINEVVAALKA
modifications: pyruvoyl prosthetic group at 403 (Pvl403, formed from Ser403)
stoichiometry N (crystal structure [2]): 2

B3: PsiD (50–439), self-cleaved, co-crystallised with L-tryptophan (domain or fragment, Psilocybe cubensis)
chain 1: NYSNEFGLMQPIQEFKAFIESDPVVHQEFIDMFEGIQDSPRNYQELCNMFNDIFRKAPVYGDLGPPVYMIMAKLMNTRAGFSAFTRQRLNLHFKKLFDTWGLFLSSKDSRNVLVADQFDDRHCGWLNERALSAMVKHYNGRAFDEVFLCDKNAPYYGFNSYDDFFNRRFRNRDIDRPVVGGVNNTTLISAACESLSYNVSYDVQSLDTLVFKGETYSLKHLLNNDPFTPQFEHGSILQGFLNVTAYHRWHAPVNGTIVKIINVPGTYFAQAPSTIGDPIPDNDYDPPPYLKSLVYFSNIAARQIMFIEADNKEIGLIFLVFIGMTEISTCEATVSEGQHVNRGDDLGMFHFGG
chain 2: SSFALGLRKDCRAEIVEKFTEPGTVIRINEVVAALKA
modifications: pyruvoyl prosthetic group at 403 (Pvl403, formed from Ser403)
stoichiometry N (crystal structure [3]): 2
